Biological target: FGF receptor/BKL complex (human) (UniProt Q86Z14)
Test: cell-based or functional assay

Chain of FGF receptor/BKL complex (human) (Q86Z14 whole entry, one chain of several): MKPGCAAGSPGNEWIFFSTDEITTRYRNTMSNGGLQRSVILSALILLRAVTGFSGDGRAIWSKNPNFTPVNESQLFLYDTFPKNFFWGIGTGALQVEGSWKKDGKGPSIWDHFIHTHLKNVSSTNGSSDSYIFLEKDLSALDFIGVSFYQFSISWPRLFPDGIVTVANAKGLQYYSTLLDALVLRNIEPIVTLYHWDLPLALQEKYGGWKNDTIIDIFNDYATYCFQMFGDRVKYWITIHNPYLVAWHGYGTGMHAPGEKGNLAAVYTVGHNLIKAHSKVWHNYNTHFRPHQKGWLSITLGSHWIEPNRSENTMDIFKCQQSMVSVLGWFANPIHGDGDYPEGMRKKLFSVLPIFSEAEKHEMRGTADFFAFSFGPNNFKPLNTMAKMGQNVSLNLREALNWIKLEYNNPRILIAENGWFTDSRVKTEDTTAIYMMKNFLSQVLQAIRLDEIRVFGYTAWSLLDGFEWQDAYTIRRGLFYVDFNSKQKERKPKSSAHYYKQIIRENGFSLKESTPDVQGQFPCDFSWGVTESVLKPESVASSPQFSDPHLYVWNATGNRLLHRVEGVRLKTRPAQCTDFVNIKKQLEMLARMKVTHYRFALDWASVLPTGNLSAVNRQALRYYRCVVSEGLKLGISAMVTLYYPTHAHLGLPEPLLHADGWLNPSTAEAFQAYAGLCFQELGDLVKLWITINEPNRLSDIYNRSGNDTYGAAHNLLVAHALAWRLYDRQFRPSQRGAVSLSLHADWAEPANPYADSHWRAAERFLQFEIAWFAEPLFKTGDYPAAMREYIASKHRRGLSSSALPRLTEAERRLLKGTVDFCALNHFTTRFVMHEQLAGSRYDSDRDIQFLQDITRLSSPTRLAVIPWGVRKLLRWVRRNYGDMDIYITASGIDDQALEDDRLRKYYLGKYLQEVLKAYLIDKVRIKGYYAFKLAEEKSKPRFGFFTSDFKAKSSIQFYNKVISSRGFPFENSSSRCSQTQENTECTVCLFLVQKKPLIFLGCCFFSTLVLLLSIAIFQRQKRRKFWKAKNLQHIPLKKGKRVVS

Row | Substance | FGF1 receptor potency [EC50] nM 0.1% HSA [nM] | FGF21 receptor potency [EC50] nM 0% HSA [nM]
1 | Met-FGF21 (Comparator) SEQ ID NO: 36 (from UniProt Q9NSA1 29-209) (ligand) | 0.44 | 0.52
2 | S{Beta-180}-[2-[2-[[2-[2-[2-[[2-[2-[2-[[(4S)-4-carboxy-4-(17-carboxyheptadecanoyl-amino)butanoyl]amino]ethoxy]ethoxy]acetyl]amino]ethoxy]ethoxy]acetyl]amino]-ethylamino]-2-oxoethyl]-Ala[Gln121,Leu168,Cys180]FGF21(1-181) (from UniProt Q9NSA1 28-209) (ligand) | 10.1 | 2.5

Reference: patent US20240400635A1
